We go through twelve molecules from US20140087995A1 (published 2014).

T1: human calcitonin receptor (human, UniProt P30988 25-474)
T1 sequence (looked up): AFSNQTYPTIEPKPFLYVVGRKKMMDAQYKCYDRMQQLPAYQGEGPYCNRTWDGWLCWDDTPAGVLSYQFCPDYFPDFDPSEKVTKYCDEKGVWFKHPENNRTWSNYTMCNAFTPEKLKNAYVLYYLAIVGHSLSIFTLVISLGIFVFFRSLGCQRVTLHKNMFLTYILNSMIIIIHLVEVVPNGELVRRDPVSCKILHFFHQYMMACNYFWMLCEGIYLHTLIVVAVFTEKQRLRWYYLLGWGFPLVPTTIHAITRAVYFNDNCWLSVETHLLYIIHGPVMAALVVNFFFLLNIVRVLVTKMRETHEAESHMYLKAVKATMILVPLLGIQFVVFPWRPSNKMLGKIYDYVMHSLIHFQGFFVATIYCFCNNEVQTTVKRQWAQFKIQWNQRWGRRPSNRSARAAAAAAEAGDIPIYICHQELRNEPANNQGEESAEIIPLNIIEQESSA

T2: human amylin 3(a) receptor (human calcitonin receptor + RAMP-3) (human, UniProt P30988 25-474; O60896 24-148, limits assumed)
T2 sequence (looked up) 1: T1 sequence (looked up)
T2 sequence (looked up) 2: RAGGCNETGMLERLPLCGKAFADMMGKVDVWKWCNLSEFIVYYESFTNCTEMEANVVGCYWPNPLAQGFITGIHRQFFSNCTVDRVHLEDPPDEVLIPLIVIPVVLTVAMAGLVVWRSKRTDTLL

T3: human calcitonin receptor (human, UniProt P30988 25-474)
T3 sequence (looked up): T1 sequence (looked up)

B1: N^ε1-[(4S)-4-carboxy-4-[[(4S)-4-carboxy-4-(19-carboxynonadecanoylamino)butanoyl]amino]butanoyl]-[Glu14,Arg17,Pro21,Pro27,Pro37]-h-amylin (peptide)
peptide: K([γGlu-γGlu-C20 diacid])CNTATCATQRLAEFLRHSSPNFGAIPSSTNVGSNTP-NH2
modifications: disulfide 2-7; N-terminus assumed
SMILES: CC[C@H](C)[C@H](NC(=O)[C@H](C)NC(=O)CNC(=O)[C@H](Cc1ccccc1)NC(=O)[C@H](CC(N)=O)NC(=O)[C@@H]1CCCN1C(=O)[C@H](CO)NC(=O)[C@H](CO)NC(=O)[C@H](Cc1c[nH]cn1)NC(=O)[C@H](CCCNC(=N)N)NC(=O)[C@H](CC(C)C)NC(=O)[C@H](Cc1ccccc1)NC(=O)[C@H](CCC(=O)O)NC(=O)[C@H](C)NC(=O)[C@H](CC(C)C)NC(=O)[C@H](CCCNC(=N)N)NC(=O)[C@H](CCC(N)=O)NC(=O)[C@@H](NC(=O)[C@H](C)NC(=O)[C@@H]1CSSC[C@H](NC(=O)[C@@H](N)CCCCNC(=O)CC[C@H](NC(=O)CC[C@H](NC(=O)CCCCCCCCCCCCCCCCCCC(=O)O)C(=O)O)C(=O)O)C(=O)N[C@@H](CC(N)=O)C(=O)N[C@@H]([C@@H](C)O)C(=O)N[C@@H](C)C(=O)N[C@@H]([C@@H](C)O)C(=O)N1)[C@@H](C)O)C(=O)N1CCC[C@H]1C(=O)N[C@@H](CO)C(=O)N[C@@H](CO)C(=O)N[C@H](C(=O)N[C@@H](CC(N)=O)C(=O)N[C@H](C(=O)NCC(=O)N[C@@H](CO)C(=O)N[C@@H](CC(N)=O)C(=O)N[C@H](C(=O)N1CCC[C@H]1C(N)=O)[C@@H](C)O)C(C)C)[C@@H](C)O
notes: also called compound 13
B2: N^α1-[2-[2-[2-[[2-[2-[2-[[(4S)-4-carboxy-4-(19-carboxynonadecanoylamino)butanoyl]amino]ethoxy]ethoxy]acetyl]amino]ethoxy]ethoxy]acetyl]-[Glu14,Arg17,Pro21,Pro27 … (peptide)
peptide: {C20 diacid-γGlu-AEEA-AEEA}-KCNTATCATQRLAEFLRHSSPNFGAIPSSTNVGSNTP-NH2
modifications: disulfide 2-7
SMILES: CC[C@H](C)[C@H](NC(=O)[C@H](C)NC(=O)CNC(=O)[C@H](Cc1ccccc1)NC(=O)[C@H](CC(N)=O)NC(=O)[C@@H]1CCCN1C(=O)[C@H](CO)NC(=O)[C@H](CO)NC(=O)[C@H](Cc1c[nH]cn1)NC(=O)[C@H](CCCNC(=N)N)NC(=O)[C@H](CC(C)C)NC(=O)[C@H](Cc1ccccc1)NC(=O)[C@H](CCC(=O)O)NC(=O)[C@H](C)NC(=O)[C@H](CC(C)C)NC(=O)[C@H](CCCNC(=N)N)NC(=O)[C@H](CCC(N)=O)NC(=O)[C@@H](NC(=O)[C@H](C)NC(=O)[C@@H]1CSSC[C@H](NC(=O)[C@H](CCCCN)NC(=O)COCCOCCNC(=O)COCCOCCNC(=O)CC[C@H](NC(=O)CCCCCCCCCCCCCCCCCCC(=O)O)C(=O)O)C(=O)N[C@@H](CC(N)=O)C(=O)N[C@@H]([C@@H](C)O)C(=O)N[C@@H](C)C(=O)N[C@@H]([C@@H](C)O)C(=O)N1)[C@@H](C)O)C(=O)N1CCC[C@H]1C(=O)N[C@@H](CO)C(=O)N[C@@H](CO)C(=O)N[C@H](C(=O)N[C@@H](CC(N)=O)C(=O)N[C@H](C(=O)NCC(=O)N[C@@H](CO)C(=O)N[C@@H](CC(N)=O)C(=O)N[C@H](C(=O)N1CCC[C@H]1C(N)=O)[C@@H](C)O)C(C)C)[C@@H](C)O
notes: also called compound 20
B3: N^α1-[(4S)-4-carboxy-4-[[(4S)-4-carboxy-4-(19-carboxynonadecanoylamino)butanoyl]amino]butanoyl]-[Glu14,Arg17,Pro21,Pro27,Pro37]-h-amylin (peptide)
peptide: {C20 diacid-γGlu-γGlu}-KCNTATCATQRLAEFLRHSSPNFGAIPSSTNVGSNTP-NH2
modifications: disulfide 2-7
SMILES: CC[C@H](C)[C@H](NC(=O)[C@H](C)NC(=O)CNC(=O)[C@H](Cc1ccccc1)NC(=O)[C@H](CC(N)=O)NC(=O)[C@@H]1CCCN1C(=O)[C@H](CO)NC(=O)[C@H](CO)NC(=O)[C@H](Cc1c[nH]cn1)NC(=O)[C@H](CCCNC(=N)N)NC(=O)[C@H](CC(C)C)NC(=O)[C@H](Cc1ccccc1)NC(=O)[C@H](CCC(=O)O)NC(=O)[C@H](C)NC(=O)[C@H](CC(C)C)NC(=O)[C@H](CCCNC(=N)N)NC(=O)[C@H](CCC(N)=O)NC(=O)[C@@H](NC(=O)[C@H](C)NC(=O)[C@@H]1CSSC[C@H](NC(=O)[C@H](CCCCN)NC(=O)CC[C@H](NC(=O)CC[C@H](NC(=O)CCCCCCCCCCCCCCCCCCC(=O)O)C(=O)O)C(=O)O)C(=O)N[C@@H](CC(N)=O)C(=O)N[C@@H]([C@@H](C)O)C(=O)N[C@@H](C)C(=O)N[C@@H]([C@@H](C)O)C(=O)N1)[C@@H](C)O)C(=O)N1CCC[C@H]1C(=O)N[C@@H](CO)C(=O)N[C@@H](CO)C(=O)N[C@H](C(=O)N[C@@H](CC(N)=O)C(=O)N[C@H](C(=O)NCC(=O)N[C@@H](CO)C(=O)N[C@@H](CC(N)=O)C(=O)N[C@H](C(=O)N1CCC[C@H]1C(N)=O)[C@@H](C)O)C(C)C)[C@@H](C)O
notes: also called compound 14
B4: N^-1-[(4S)-4-carboxy-4-(19-carboxynonadecanoylamino)butanoyl]-Gly[Arg1,His14,Arg17,Pro21,Pro27,Pro34]-h-amylin (peptide)
peptide: {C20 diacid-γGlu}-GRCNTATCATQRLAHFLRHSSPNFGAIPSSTNVGPNTY-NH2
modifications: disulfide 3-8
SMILES: CC[C@H](C)[C@H](NC(=O)[C@H](C)NC(=O)CNC(=O)[C@H](Cc1ccccc1)NC(=O)[C@H](CC(N)=O)NC(=O)[C@@H]1CCCN1C(=O)[C@H](CO)NC(=O)[C@H](CO)NC(=O)[C@H](Cc1c[nH]cn1)NC(=O)[C@H](CCCNC(=N)N)NC(=O)[C@H](CC(C)C)NC(=O)[C@H](Cc1ccccc1)NC(=O)[C@H](Cc1c[nH]cn1)NC(=O)[C@H](C)NC(=O)[C@H](CC(C)C)NC(=O)[C@H](CCCNC(=N)N)NC(=O)[C@H](CCC(N)=O)NC(=O)[C@@H](NC(=O)[C@H](C)NC(=O)[C@@H]1CSSC[C@H](NC(=O)[C@H](CCCNC(=N)N)NC(=O)CNC(=O)CC[C@H](NC(=O)CCCCCCCCCCCCCCCCCCC(=O)O)C(=O)O)C(=O)N[C@@H](CC(N)=O)C(=O)N[C@@H]([C@@H](C)O)C(=O)N[C@@H](C)C(=O)N[C@@H]([C@@H](C)O)C(=O)N1)[C@@H](C)O)C(=O)N1CCC[C@H]1C(=O)N[C@@H](CO)C(=O)N[C@@H](CO)C(=O)N[C@H](C(=O)N[C@@H](CC(N)=O)C(=O)N[C@H](C(=O)NCC(=O)N1CCC[C@H]1C(=O)N[C@@H](CC(N)=O)C(=O)N[C@H](C(=O)N[C@@H](Cc1ccc(O)cc1)C(N)=O)[C@@H](C)O)C(C)C)[C@@H](C)O
B5: N^-1-[(4S)-4-carboxy-4-(19-carboxynonadecanoylamino)butanoyl]-Gly[Arg1,Ala14,Arg17,Pro21,Pro27,His34]-h-amylin (peptide)
peptide: {C20 diacid-γGlu}-GRCNTATCATQRLAAFLRHSSPNFGAIPSSTNVGHNTY-NH2
modifications: disulfide 3-8
SMILES: CC[C@H](C)[C@H](NC(=O)[C@H](C)NC(=O)CNC(=O)[C@H](Cc1ccccc1)NC(=O)[C@H](CC(N)=O)NC(=O)[C@@H]1CCCN1C(=O)[C@H](CO)NC(=O)[C@H](CO)NC(=O)[C@H](Cc1c[nH]cn1)NC(=O)[C@H](CCCNC(=N)N)NC(=O)[C@H](CC(C)C)NC(=O)[C@H](Cc1ccccc1)NC(=O)[C@H](C)NC(=O)[C@H](C)NC(=O)[C@H](CC(C)C)NC(=O)[C@H](CCCNC(=N)N)NC(=O)[C@H](CCC(N)=O)NC(=O)[C@@H](NC(=O)[C@H](C)NC(=O)[C@@H]1CSSC[C@H](NC(=O)[C@H](CCCNC(=N)N)NC(=O)CNC(=O)CC[C@H](NC(=O)CCCCCCCCCCCCCCCCCCC(=O)O)C(=O)O)C(=O)N[C@@H](CC(N)=O)C(=O)N[C@@H]([C@@H](C)O)C(=O)N[C@@H](C)C(=O)N[C@@H]([C@@H](C)O)C(=O)N1)[C@@H](C)O)C(=O)N1CCC[C@H]1C(=O)N[C@@H](CO)C(=O)N[C@@H](CO)C(=O)N[C@H](C(=O)N[C@@H](CC(N)=O)C(=O)N[C@H](C(=O)NCC(=O)N[C@@H](Cc1c[nH]cn1)C(=O)N[C@@H](CC(N)=O)C(=O)N[C@H](C(=O)N[C@@H](Cc1ccc(O)cc1)C(N)=O)[C@@H](C)O)C(C)C)[C@@H](C)O

Numbered stars: 1 amine (or outer) side, 2 acyl side, 3 side chain; on linkers, the order of the positions; unused ones are H or OH. Bridge positions count the residues as written; N and C are the ends. Side chains are listed from the residue outwards. Ends that are not written are not given here. * marks the point of attachment. C20 diacid = O=C(O)CCCCCCCCCCCCCCCCCCC(=O)*; C18 diacid = O=C(O)CCCCCCCCCCCCCCCCC(=O)*; C16 diacid = O=C(O)CCCCCCCCCCCCCCC(=O)*; γGlu = O=C(O)[C@H](CCC(=O)[*:2])N[*:1]; C14 diacid = O=C(O)CCCCCCCCCCCCC(=O)*; AEEA = NCCOCCOCC(=O)O

One test has as its target T1, human calcitonin receptor. In words: cell-based or functional assay.
For the molecule B1, the “Ratio hCT/hAmylin funct.” value came to 2.2.

As to B2, the “Ratio hCT/hAmylin funct.” value was determined as 3.6.

As to B3, the “Ratio hCT/hAmylin funct.” value was 1.6.

Regarding {C20 diacid-γGlu}-GRCNTATCATQRLAAFLRHSSPNFGAIPSSTNVGPNTY-NH2 (disulfide 3-8), the “Ratio hCT/hAmylin funct.” value came out at 2.1.

B4: the “Ratio hCT/hAmylin funct.” value was 2.9.

Consider B5, for which the “Ratio hCT/hAmylin funct.” value is 4.9.

For another test, the target named is T2, human amylin 3(a) receptor (human …). In words: cell-based or functional assay.
With B1, the “hAmylin-R funct. EC50 (pM)” value stood at 213 pM.

As to B2, the “hAmylin-R funct. EC50 (pM)” value was found to be 80 pM.

For the molecule B3, the “hAmylin-R funct. EC50 (pM)” value was determined as 146 pM.

For {C20 diacid-γGlu}-GRCNTATCATQRLAAFLRHSSPNFGAIPSSTNVGPNTY-NH2 (disulfide 3-8), the “hAmylin-R funct. EC50 (pM)” value came to 70 pM.

Consider B4, for which the “hAmylin-R funct. EC50 (pM)” value amounted to 62 pM.

For the molecule B5, the “hAmylin-R funct. EC50 (pM)” value was 109 pM.

The target of another test is T3, human calcitonin receptor. In words: cell-based or functional assay.
Turning to K([γGlu-γGlu-C20 diacid])CNTATCATQRLAEFLRHSSPNFGAIPSSTNVGPETY-NH2 (disulfide 2-7 (inferred), Synthetic), the “hCTR funct. EC50 (pM)” value worked out at 2360 pM.

K([γGlu-C18 diacid])CNTATCATQRLANFLRHSSPNFGAIPSSTNVGHNTY-NH2 (disulfide 2-7 (inferred), Synthetic) [N^ε1-[(4S)-4-carboxy-4-(17-carboxyheptadecanoylamino)butanoyl]-[Arg17,Pro21,Pro27,His34]-h-amylin]: the “hCTR funct. EC50 (pM)” value was found to be 5850 pM.

For the molecule K([γGlu-C20 diacid])CNTATCATQRLAEFLRHSSPNFGAIPSSTNVGRETY-NH2 (disulfide 2-7 (inferred), Synthetic), the “hCTR funct. EC50 (pM)” value came out at 2740 pM.

As for K([γGlu-C16 diacid])CNTATCATQRLANFLRHSSPNFGAIPSSTNVGHNTY-NH2 (disulfide 2-7 (inferred), Synthetic) [N^ε1-[(4S)-4-carboxy-4-(15-carboxypentadecanoylamino)butanoyl]-[Arg17,Pro21,Pro27,His34]-h-amylin], the “hCTR funct. EC50 (pM)” value turned out to be 2210 pM.

In the case of K([γGlu-C14 diacid])CNTATCATQRLANFLRHSSPNFGAIPSSTNVGHNTY-NH2 (disulfide 2-7 (inferred), Synthetic) [N^ε1-[(4S)-4-carboxy-4-(13-carboxytridecanoylamino)butanoyl]-[Arg17,Pro21,Pro27,His34]-h-amylin], the “hCTR funct. EC50 (pM)” value amounted to 1090 pM.

With K([γGlu-C20 diacid])CNTATCATQRLADFLRHSSPNFGAIPSSTNVGPRTY-NH2 (disulfide 2-7 (inferred), Synthetic), the “hCTR funct. EC50 (pM)” value was determined as 3640 pM.
